The values below come from PMC11602988 (The Journal of Biological Chemistry, 2024).

Data set [1] deals with T1, OCT1 WT (Homo sapiens, UniProt O15245).
T1 sequence (O15245 1-554): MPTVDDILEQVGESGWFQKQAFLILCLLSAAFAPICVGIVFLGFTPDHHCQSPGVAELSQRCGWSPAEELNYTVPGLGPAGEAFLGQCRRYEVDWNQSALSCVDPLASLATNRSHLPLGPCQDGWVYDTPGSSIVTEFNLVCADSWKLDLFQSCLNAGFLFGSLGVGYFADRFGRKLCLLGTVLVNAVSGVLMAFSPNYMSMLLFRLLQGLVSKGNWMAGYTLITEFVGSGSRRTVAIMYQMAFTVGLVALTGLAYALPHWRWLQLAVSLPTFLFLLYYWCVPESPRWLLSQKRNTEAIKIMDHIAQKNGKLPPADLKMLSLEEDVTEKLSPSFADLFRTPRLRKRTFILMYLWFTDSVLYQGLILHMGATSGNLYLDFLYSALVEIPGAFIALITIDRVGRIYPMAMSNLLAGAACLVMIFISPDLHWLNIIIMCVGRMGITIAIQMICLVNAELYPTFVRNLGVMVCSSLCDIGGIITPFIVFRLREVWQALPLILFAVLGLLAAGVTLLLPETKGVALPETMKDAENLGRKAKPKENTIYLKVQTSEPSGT
The experiment in a line: cell-based.

Data set [2] deals with T2, OCT1 Phe244Ala variant (Homo sapiens, UniProt O15245, F244A).
T2 sequence (O15245 1-554 F244A): T1 sequence (O15245 1-554) with F244A
The experiment in a line: Stereoselective cell uptake of racemic substrates (chiral LC-MS/MS), OCT1 Phe244Ala variant. The note with it: 2.5 μM racemic substance, 2 min.

For data set [3], the target named is T2, OCT1 Phe244Ala variant. As to the kind of experiment: cell-based.
Data set [4] deals with T1, OCT1 WT. As to the kind of experiment: Stereoselective cell uptake of racemic substrates (chiral LC-MS/MS), OCT1 WT. The note with it: 2.5 μM racemic substance, 2 min.
The target of data set [5] is T2, OCT1 Phe244Ala variant. As to the kind of experiment: Uptake screening (transport ratio over empty vector), HEK293 cells overexpressing OCT1 Phe244Ala variant.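 As to all read-outs here: stably transfected HEK293 cells, intracellular substrate quantified by HPLC-tandem mass spectrometry in cell lysates, uptake in HBSS+ buffer.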 The class given is cell-based. Also noted: expressed in transfected cells. The note with it: for relative_Phe244Ala_uptake_in%: Phe244Ala uptake relative to OCT1 WT.
In data set [6] the target is T1, OCT1 WT. As to the kind of experiment: Uptake screening (transport ratio over empty vector), HEK293 cells overexpressing OCT1 WT.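 Also: intracellular substrate levels quantified by HPLC–tandem mass spectrometry after uptake in HBSS+ buffer at 37 °C, stable Flp-In HEK293 lines, fold change versus empty vector–transfected cells.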 It counts as cell-based. Also noted: expressed in transfected cells.
For data set [7], the target named is T2, OCT1 Phe244Ala variant. The experiment in a line: Concentration-dependent uptake kinetics, HEK293 cells overexpressing OCT1 Phe244Ala.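 Also: cells exposed to rising substrate concentrations in buffer, intracellular drug measured by HPLC-tandem mass spectrometry, quantified against a standard curve, uptake referenced to empty vector-transfected HEK293 controls.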
The target in data set [8] is T2, OCT1 Phe244Ala variant. The conditions noted are these: cited from earlier work.
Data set [9] addresses T1, OCT1 WT. As to the kind of experiment: Concentration-dependent uptake kinetics, HEK293 cells overexpressing OCT1 WT.
Substrate in data set [10]: NC(N)=Nc1nc(CSCCC(N)=NS(N)(=O)=O)cs1
The experiment in a line: cells, lysate or membranes. The conditions noted are these: other: OCT1 WT, HEK293, 2 min incubation, net uptake, mean ± SD of three experiments.

Substrate in data set [11]: CN(C)CCc1c[nH]c2ccc(C[C@H]3COC(=O)N3)cc12
The experiment in a line: cells, lysate or membranes. The note with it: other: OCT1 WT, HEK293, 2 min incubation, net uptake, mean ± SD of three experiments.

Substrate in data set [12]: CN1CCN(CC(=O)N2c3ccccc3C(=O)Nc3cccnc32)CC1
As to the kind of experiment: cells, lysate or membranes. The note with it: other: OCT1 WT, HEK293, 2 min incubation, net uptake, mean ± SD of three experiments.

Substrate in data set [13]: COc1cc(CCN)cc(OC)c1OC
The experiment in a line: cells, lysate or membranes. The conditions noted are these: other: OCT1 WT, HEK293, 2 min incubation, net uptake, mean ± SD of three experiments.

Substrate in data set [14]: CC(C)(C)NCC(O)COc1cccc2c1CCC(=O)N2
As to the kind of experiment: cells, lysate or membranes. The note with it: other: OCT1 WT, HEK293, 2 min incubation, net uptake, mean ± SD of three experiments.

Substrate in data set [15]: CCN1CCCC1CNC(=O)c1cc(S(N)(=O)=O)ccc1OC
As to the kind of experiment: cells, lysate or membranes. The note with it: other: OCT1 WT, HEK293, 2 min incubation, net uptake, mean ± SD of three experiments.

Substrate in data set [16]: Cc1ncc(C[n+]2csc(CCO)c2C)c(N)n1
The experiment in a line: cells, lysate or membranes. The note with it: other: OCT1 WT, HEK293, 2 min incubation, net uptake, mean ± SD of three experiments.

Substrate in data set [17]: CC(CCc1ccc(O)cc1)NCCc1ccc(O)c(O)c1
As to the kind of experiment: cells, lysate or membranes. The note with it: other: OCT1 WT, HEK293, 2 min incubation, net uptake, mean ± SD of three experiments.

Substrate in data set [18]: CC(=O)OC(C)C[N+](C)(C)C
The experiment in a line: cells, lysate or membranes. The note with it: other: OCT1 WT, HEK293, 2 min incubation, net uptake, mean ± SD of three experiments.

Substrate in data set [19]: CC(C)[N+](C)(CCOC(=O)C1c2ccccc2Oc2ccccc21)C(C)C
As to the kind of experiment: cells, lysate or membranes. The note with it: other: OCT1 WT, HEK293, 2 min incubation, net uptake, mean ± SD of three experiments.

The mark [20] stands for this setting: uptake ratio over empty vector, HEK293 cells overexpressing OCT1 Phe244Ala.
Setting [21] is: uptake ratio over empty vector, HEK293 cells overexpressing OCT1 WT.

Substitutions are numbered along the chain they refer to. “Also recorded” adds a separate entry of the source.

Take `CC(Cc1ccc(O)cc1)NCC(O)c1cc(O)cc(O)c1` (stereo not drawn) [Fenoterol]: the IC50 – broadly, the concentration at which inhibition is half-maximal – against OCT1 WT [1] came out at 0.541 µM; against OCT1 Phe244Ala variant [3], 5.53 µM. Further, the “Stereoselectivity of Phe244Ala variant compared to WT” value at OCT1 Phe244Ala variant [2] is listed as “opposite stereoselectivities; also recorded: only one enantiomer of the racemic mixtures showed altered transport”.

As to `O=C(NCCNCC(O)COc1ccc(O)cc1)N1CCOCC1` (stereo not drawn) [Xamoterol], the “Stereoselectivity of uptake via WT OCT1” value on OCT1 WT [4] is recorded as “stereoselective uptake”. In addition, at OCT1 Phe244Ala variant [2], the “Stereoselectivity of Phe244Ala variant compared to WT” value is “only one enantiomer of the racemic mixtures showed altered transport” and the “Stereoselectivity of transport by the Phe244Ala variant” value is on record as “lacked any stereoselective transport”. At OCT1 Phe244Ala variant [5], the relative_Phe244Ala_uptake_in% was found to be 54.211%. Further, the Mean_transport_ratio_Phe244Ala at OCT1 Phe244Ala variant [5] (setting [20]) came out at 19.358. In addition, at OCT1 WT [6] (setting [21]), the Mean_transport_ratio_WT is 34.864.

For `CN(C)C(=N)N=C(N)N` [Metformin], the vmax at OCT1 Phe244Ala variant [7] (OCT1 Phe244Ala, HEK293, 2 min incubation, net uptake) was 4361 ± 1497 pmol × mg protein^−1 × min^−1; at OCT1 WT [9] (OCT1 WT, HEK293, 2 min incubation, net uptake) it was 10,813 ± 2176 pmol × mg protein^−1 × min^−1. Further, the Clint on OCT1 Phe244Ala variant [7] (OCT1 Phe244Ala, ratio of vmax over Km) is recorded as 1.54 ± 2.02 ml × g Protein^−1 × min^−1; on OCT1 WT [9] (OCT1 WT, ratio of vmax over Km), 3.71 ± 2.82 ml × g Protein^−1 × min^−1. The Km (usually the concentration of substrate that gives half-maximal velocity) at 2 min on OCT1 Phe244Ala variant [7] (human, HEK293 cells overexpressing OCT1 Phe244Ala) came to 2830 ± 2730 µM; on OCT1 WT [9] (human, HEK293 cells overexpressing OCT1 WT) it was 2910 ± 1630 µM. Moreover, on OCT1 Phe244Ala variant [7] (uptake kinetics, in words), the “Maximum transport capacity (vmax), Phe244Ala compared to WT” value is reported as “reduced transport capacity”. At OCT1 Phe244Ala variant [8], the “Consequence of the Phe244Ala substitution on transport” value is reported as “complete loss of transport activity”. For the same molecule, the “Transport activity of Phe244Ala in % of WT activity” value at OCT1 Phe244Ala variant [5] (2.5 μM substrate, 2 min, Phe244Ala uptake relative to WT) is recorded as about 10%. In addition, the relative_Phe244Ala_uptake_in% on OCT1 Phe244Ala variant [5] is on record as 14.754%. On OCT1 Phe244Ala variant [5] (uptake ratio of OCT1 Phe244Ala-overexpressing HEK293 cells over empty vector), the Mean_transport_ratio_Phe244Ala was 1.869. Also, the Mean_transport_ratio_WT at OCT1 WT [6] (uptake ratio of OCT1 WT-overexpressing HEK293 cells over empty vector) is on record as 6.891.

Turning to `CCOc1ccccc1OCCN[C@H](C)Cc1ccc(OC)c(S(N)(=O)=O)c1` [Tamsulosin], the “Stereoselectivity of uptake via WT OCT1” value on OCT1 WT [4] was “stereoselective uptake”. For the same molecule, the “Stereoselectivity of transport by the Phe244Ala variant” value at OCT1 Phe244Ala variant [2] is listed as “lacked any stereoselective transport”. The relative_Phe244Ala_uptake_in% at OCT1 Phe244Ala variant [5] was found to be 40.118%. Also, the Mean_transport_ratio_Phe244Ala on OCT1 Phe244Ala variant [5] (setting [20]) was found to be 1.803. On OCT1 WT [6] (setting [21]), the Mean_transport_ratio_WT is on record as 3.001.

B1: OCT1 WT (Homo sapiens) (protein)
chain: T1 sequence (O15245 1-554)
For the molecule B1, the Km in data set [10] was found to be 64.7 ± 50.2 µM; in data set [11], 98.5 ± 87.8 µM; in data set [12], 69.3 ± 103 µM; in data set [13], 38.2 ± 14.3 µM; in [14] it was 449 ± 438 µM; in [15], 89.2 ± 85.2 µM. Further, the Km in [16] was 1161 ± 1029 µM; in [17], 40.1 ± 57.7 µM; in data set [18], 413 ± 314 µM; in [19], 1.26 ± 1.12 µM. Moreover, the Vmax (in general, the rate approached at saturating substrate) in [10] is 0.00296 µmol/min/mg; in data set [11], 0.00213 µmol/min/mg; in data set [12], 3e-05 µmol/min/mg; in data set [13], 0.000185 µmol/min/mg; in [14], 0.000453 µmol/min/mg; in data set [16], 0.00872 µmol/min/mg. For the same molecule, the figures for the Vmax in data set [17], in [18] and in [19] were 0.000122 µmol/min/mg, 0.00584 µmol/min/mg and 0.000271 µmol/min/mg, respectively. For the same molecule, the Vmax/Km in data set [10] was found to be 45.8 µL/min/mg; in [11], 21.6 µL/min/mg; in data set [12], 0.43 µL/min/mg; in data set [13], 4.84 µL/min/mg; in data set [14], 1.01 µL/min/mg; in data set [16] it was 7.51 µL/min/mg. Also, the Vmax/Km in data set [17] was found to be 3.03 µL/min/mg; in data set [18], 14.1 µL/min/mg; in data set [19], 224 µL/min/mg.
